Data from the DeepSol protein solubility set.

Assay: soluble on expression in E. coli; label from the status in PepcDB or PDB records
For “GGVDRWPEYYPETGRDIWIDSVMRQEYLWYRDMPSPAAPDYFQKPEAFLKKAVASMDNGFSKIDSLLDEPIPSYGFDYTLYKVLDNDTAYNALISYVVPGSPAEEAGLQRGHWIMMMNGDYITKKVESELLQGSTRQLQIGVYKEVVGEDGEVTGGVVPIGETTMPASRSLVDKPVHRFEIIPWNGKKVGYLMYNEFKAGPTTDSQAYNDDLRRAFRDFQTGGVNEFVLDLRYNTGGSLDCAQLLCTMLAPADKMNQLLALLRYSDKRVEANQDLTFNPELIQSGANLNLSTVYVLTTNATRGAAEMVINCLNPYMKVVLIGTKTAGEYVATKPFVHPTDRFILNLVVCNVYNAEEKSDYATGFKPTYEYNEDSYLSTYLPFGNTNETLLNAALKIMSGITDK”, the “soluble on expression in E. coli” value was “soluble”. In the case of “STTLTHRARRTEISKNSEKKMESEEDSNWEKSPDNEDSGDSKDIRLTLMEEVLLLGLKDKEGYTSFWNDCISSGLRGGILIELAMRGRIYLEPPTMRKKRLLDRKVLLKSDSPTGDVLLDETLKHIKATEPTETVQTWIELLTGETWNPFKLQYQLRNVRERIAKNLVEKGILTTEKQNFLLFDMTTHPVTNTTEKQRLVKKLQDSVLERWVNDPQRMDKRTLALLVLAHSSDVLENVFSSLTDDKYDVAMNRAKDLVELDPEVEGTKPSATEMIWAVLAAFNKS”, the “soluble on expression in E. coli” value is reported as “soluble”. For “SLDWQKGMNSAIDYIEKNLTGNVNVRTAAGFVGCSTWEFQRIFSFLTHIPLSEYIRQRKLTLAAQEIKDNDVKIIDIALKYGYESPAAFSRAFNKLFGIAPSSVRNTENNLKTYPRITFEKIENERLIKMSRFSERGYVVRENGPVYFTKDMDKTVKWFEEILGWSGDIVARDDEGFGDYGCVFDYPSEVAVAHLTPFRGFHLFKGEPIKGVAGFMMIEGIDALHKYVKENGWDQISDIYTQPWGARECSITTTDGCILRFFESIQEG”, the “soluble on expression in E. coli” value was “soluble”. In the case of “MSLTKYIFVTGGVVSSIGKGIVAASLGRLLKNRGLKVTIQKFDPYINVDPGTMSPYQHGEVFVTDDGAETDLDLGHYERFIDINLNKYSNVTTGKIYSEVLRKERKGEYLGATVQVIPHITNEIKEKIMRAAKMTDADVIITEVGGTVGDIESLPFLEALRQMKADMGSDNVMYIHTTLIPYLKAAGEMKTKPTQHSVKELRSLGIQPNILVVRTELPVSQNTKNKLAQFCDVNPEAVIESRDVETLYSIPLALQAQNMDQIVCDHLKLDAPAADMTEWRALEEKVLNLKKKTKIALVGKYVELPDAYISVVEALKHAGFDFDSDIEIDWVDSQELTAENVAERIGSADGILVPGGFGDRGIEGKIEAIRFARENDVPFLGICLGMQMACVEFGRNVVGLEDAGSAETNPDVTNNIIDLMADQENIENLGGTLRLGLYPCKLKKGTKTAAAYGNEDVVQERHRHRYEFNNKYRQLFEENGLVFSGVSPDNRLVEIVEIPEKQFFVACQFHPELISRPNRPQRLIKGFVGAALANKEKGHHHHHH”, the “soluble on expression in E. coli” value is reported as “soluble”. In the case of “MGSDKIHHHHHHMYQQVIDFIEHQKKIGALHPGDKLPSLRKLSRQFDISVPTVKQAYIELERQGQVCAKPQSGYYLQAMQARTLKPRPAKWAQCDPVEVQGRSMIEQVHAAVHLPNTVALGISNPIQAHPPDKALARLMRSVLSKVSEKAVSYGPVTGDAKLRMQLAFRYQDQGVETNPDDIVITNGAQEALSIALQCVAKRGDIIAIESPCFFGMIELIETLGMKALEVYTCTEDGVCVEDLAEAINQHDITACLFSTAINNPLGSMKTDEQRQAMVSLLEQHDIPLIEDEVYSEIYFTDNKPKPAQLYSEKGLVMTCSSFSKTAAPGYRIGWLLPGKFEEQAKRIKRAQSASTPMLQQWTLNEYLLSGDYDRHLCVLRKTLAYNCERMRALIAEHFPPEVCISKPLGGSVLWLRCQSHVKTGEFFQQALTQGVSFAPGAIFSPSGKYQNYMRVSYGVQWGEDVETAVKVLGQLVYEYTSKQKTAQLMEKQ”, the “soluble on expression in E. coli” value is reported as “not soluble”. In the case of “MKCVFVTVGTTSFDDLIACVSAPDSLQKIESLGYNRLILQIGRGTVVPEPFSTESFTLDVYRYKDSLKEDIQKADLVISHAGAGSCLETLEKGKPLVVVINEKLMNNHQLELAKQLHKEGHLFYCTCSTLPGLLQSMDLSTLKCYPPGQPEKFSAFLDKVVGLQK”, the “soluble on expression in E. coli” value is reported as “soluble”. With “MSLENTTQIPESELHNLGLTDEEIQEFNQYLIDESLFQETVETSPIVVSDNEDAAQDPGFGLFTTNPVKHTDEHIGALYFSDLPGISNLTCTANYIGGKFWTTAHHCVEGRSRFVGFIEQSDGQYAGIEHVYTKSSDYDIALIKVGSGIDAEQFSLTRSRPAVGKMLEVVGFAVVNPFSSRATMEVTNSNTVANYPMSNLYYKDVFSAKPAGSFPYVISGGDSGAAVWSGETMYGIASGSNGSTKNLAANVGPHVSWIEQTMQNNSNSSPYEILQAFRGGLATSYPKYNQIRDLVDSSEGHHHHHH” the “soluble on expression in E. coli” value was “soluble”. With “MNITFKFNFMSYKHYFSPKHKPEITQAITITEPAIIFRLNKTYSTNLSQQEIYDITRSDWILGHRREKAEYGFAAFKGVVLQVYRIDRWDFSGKVTDVGRQRWFFEGKVATEMQDYINGNISHYFKKGDRSPTKYLNCLEHHHHHH” the “soluble on expression in E. coli” value was “not soluble”. In the case of “RNFKMIDNLSKVYGVELGYASRIKLLRAVFVNMAAAGASELAIDAGMDLMSMDLAGKVSARAGQGLGVGILTARLGLKAMALLRPLPWYPDRQVKLGTIRKAVVAKVASITMKP”, the “soluble on expression in E. coli” value is reported as “not soluble”. In the case of “MGSDKIHHHHHHMCSDHIRLPAQLAAGDVAIRVENLSKRFAVYHTRLERLKHIVAPRRTKGFAEFWALDHVDLTIGRGEACAIIGRNGSGKSTLLQILCGTLRATSGRVAVNGRVAALLELGAGFNADFTGRENVYLNGAVLGLSHTEINERFVEIEAFAEVGDFIDQPVKTYSSGMYVRLAFAIAIHVDPQILIVDEALAVGDARFQAKCLNRIKKMQADGVTLLFVSHDVSAVRTLCDRALWLDCGKVKMLADAFSVTAQYSQFLFEGEDYAVAGNGSGSPQDSSGALQSAASQDISPSAHPEEANQSRAGACGEELMAMHRPINHWGSHVGSIVQAGIYNARGERASTFVAGEPIEVRVIFRPPLNADRKTMSVAFSLKDLRGTDLIVSTTWDQRRLDFEQAGGEACIRFRLRNQLNRGSYLLAVALEDRAGVAPQYYEYIEGAHYFTSLVEDTLFGSFVVDVEQTIEPGHSLYANARVSV”, the “soluble on expression in E. coli” value is reported as “not soluble”. For “MESESIVYGCIRDWPGDSMERRMRRAANRRVLDSLPGGEAWPFLGREMFSRCEQSGAGLYQTQIIHFGASYQAIEYEWSLWVEQFEALLRRLYWASAVVHLETEVNGSHTFRWESERGFHTPQESDLQVRCAWEREGGRR”, the “soluble on expression in E. coli” value was “not soluble”. With “MKNFLLLTLILLTACNNSEENTQSIIKNDINKTIIDEEYVNLEPINQSNISFTKHSWVQTCGTQQLLTEQNKESISLSVVAPRLDDDEKYCFDFNGVSNKGEKYITKVTLNVVAPSLEVYVDHASLPTLQQLMDIIKSEEENPTAQRYIAWGRIVPTDEQMKELNITSFALINNHTPADLVQEIVKQAQTKHRLNVKLSSNTAHSFDNLVPILKELNSFNNVTVTNIDLYDDGSAEYVNLYNWRDTLNKTDNLKIGKDYLEDVINGINEDTSNTGTSSVYNWQKLYPANYHFLRKDYLTLEPSLHELRDYIGDSLKQMQWDGFKKFNSKQQELFLSIVNFDKQKLQNEYNSSNLPNFVFTGTTVWAGNHEREYYAKQQINVINNAINESSPHYLGNSYDLFFKGHPGGGIINTLIMQNYPSMVDIPSKISFEVLMMTDMLPDAVAGIASSLYFTIPAEKIKFIVFTSTETITDRETALRSPLVQVMIKLGIVKEENVLFWADLPNCETGVCIAV” the “soluble on expression in E. coli” value was “soluble”. For “MIDLSTEFAGLRLKNPIVAASSGLTRNLKTIKDLEAAGVAAIVLKSLFEEQIEAEMSQMMSPMDYPEAADYINAYVQSNEISKHLDFLREVKREVAIPVIASINCFRSDSWVDFAKQFEEAGADALEINVMRLNTDLFFDANKAEQMYVDIISSLIKAIRIPVVVKLSKSFANIPSLVDKLRAAGAKGVVLFNRSYQPDIDIDKVQMVAGDVFTSAGEISDTIRH”, the “soluble on expression in E. coli” value was “not soluble”. In the case of “MNGIHDVGGMDGFGKVMYVKEEEDIYFTHDWERLALGLVAGCMAQGLGMKAFDEFRIGIELMRPVDYLTSSYYGHWIATVAYNLVDTGVLDEKELDERTEVFSKKPDTKIPRREDPALVKLVEKALNDGLSPLREISASPRFKVGERIKTKNIHPTGHTRFPRYARDKYGVIDEVYGAHVFPDDAAHRKGENPQYLYRVRFEAEELWGYKQKDSVYIDLWESYMEPVSH”, the “soluble on expression in E. coli” value is reported as “soluble”.
